The values that follow come from patent US20160041181A1, “NMR ASSAY TO SCREEN PROTEIN-PROTEIN INTERACTION INHIBITORS” (RUTGERS, THE STATE UNIVERSITY OF NEW JERSEY, priority 2013, published 2016).

Non-standard residues stand in square brackets, D forms with d. No end group written: not given here.

As usually defined, the Kd is the free concentration of one partner at which half of the binding sites on the other are occupied at equilibrium, for simple one-to-one binding.

Holding throughout (type): binding, influenza A/Udorn/307/1972 (H3N2)
Assay [1] deals with T1, NS1A ED (Influenza A virus, UniProt P03495).
T1 construct: made in house; host or cells: Escherichia coli BL21(DE3)-Gold, pET21_NESG vector
T1 sequence (P03495 85-215): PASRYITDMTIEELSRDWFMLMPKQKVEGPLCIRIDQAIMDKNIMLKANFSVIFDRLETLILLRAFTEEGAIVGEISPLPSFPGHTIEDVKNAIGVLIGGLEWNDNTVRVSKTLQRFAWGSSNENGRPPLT
In words: Dissociation constant for homodimerization of NS1A ED (dimer-monomer equilibrium). The settings on record: low salt pH 8 buffer.

Assay [2] deals with T1, NS1A ED. Particulars: 200 uM ED, 0, 50, 100, 200, 300 uM test peptide.
In assay [3] the target is T1, NS1A ED. In words: 1D 19F NMR assay of 5FW-labeled NS1A ED with designed peptide. An excerpt: In one exemplary embodiment, the candidate compound is a D-peptide having a sequence dN-Y-F-Y-S-L-F-dQ-G (see FIG. 14). The peptide has the ability to bind NS1A at the site normally used to sequester CPSF30. This same site on NS1A is also responsible for cooperative homodimerization interactions that contribute to an alternative cooperative mechanism by which ED:ED domain interactions contribute to the free energy for binding dsRNA by NS1A.
One-dimensional (1D) ^19F NMR spectroscopy was performed locked and at 20° C. on a Varian INOVA 500 MHz spectrometer equipped with a room temperature 5-mm ^1H/^19F switchable probe at a frequency of 470.18 MHz. All ^19F NMR spectra were acquired using VNMRJ 2.1B and referenced to external neat trichlorofluoromethane, CFCl3. Typical 1D ^19F NMR acquisition parameters were as follows: a 20,000 Hz sweep width (42.5 ppm), a 0.35 s acquisition time, a 5 s relaxation delay time, and a 5.0 μs 90° pulse length.
^19F NMR is an ideal assay for characterizing binding and inhibition of the NS1A protein. Using 1D ^19F NMR, it was possible to identify the binding location of a designed peptide according to its proximity to the nearest ^19F labeled Trp amino acids (see FIG. 16A vs. FIG. 16B).

For “5fW NS1A ED: NS1A effector domain biosynthetically labeled with 5-fluoro-tryptophan”, the Kd with NS1A ED [1] amounted to 7 ± 5 µM.

Turning to “dAsn-Tyr-Phe-Tyr-Ser-Leu-Phe-dGln-Gly ([dN]YFYSLF[dQ]G) [test peptide, designed D-amino acid capped peptide based on the CPSF30 helix …]”, the “exchange regime at the binding site (15N-1H HSQC)” value with NS1A ED [2] (binding site) is on record as “slow-exchange, indicative of strong binding”. In the assay with NS1A ED [2] (other residues of the ED), the “exchange regime at other residues of the ED (15N-1H HSQC)” value is given as “fast-exchange, or weak binding”. Besides, the “exchange regime of residue W187 (15N-1H HSQC)” value with NS1A ED [2] (residue W187) was “slow-exchange indicative of tight binding”. In addition, the “19F chemical shift change of the Trp102 and Trp203 resonances” value in the assay with NS1A ED [3] (Trp102 and Trp203, listed as dAsn-Tyr-Phe-Tyr-Ser-Leu-Phe-dGln-Gly) is “no significant impact”; with NS1A ED [3] (Trp102 and Trp203, listed as dN-Y-F-Y-S-L-F-dQ-G), “no chemical shift perturbations”. The “19F chemical shift change of the Trp187 resonance” value is recorded as “strong ^19F chemical shift change” with NS1A ED [3] (Trp187, listed as dAsn-Tyr-Phe-Tyr-Ser-Leu-Phe-dGln-Gly) and “strong chemical shift perturbations” in the assay with NS1A ED [3] (Trp187, listed as dN-Y-F-Y-S-L-F-dQ-G).
